Read-outs that look alike come from different tables or passages of the source.

In experiment [1] the target is GST-Pea2-CC1 (GST-tagged Pea2-CC1; dimer) (Saccharomyces cerevisiae (strain S288c)) (UniProt P40091). Kind of experiment: SEC-MALS; 100 μL of 100 μM protein on Superdex 200 Increase 10/300 GL; 50 mM Tris-HCl pH 7.5, 100 mM NaCl, 1 mM EDTA, 1 mM DTT. In general terms: SEC sorts molecules by how far they enter the pores of the column.
For experiment [2] the target is unchanged. Kind of experiment: ITC; 500 μM Myo2-GTD in the syringe titrated into 50 μM Kar9-MIS or Pea2-MIS in the cell, 25 °C; one-site binding model. In general terms: Isothermal titration calorimetry measures the heat released or taken up as one component is titrated into another.
The target of experiment [3] is Kar9^C (unstructured C-terminal region of Kar9) (Saccharomyces cerevisiae (strain S288c)) (UniProt P32526). The experiment is described as above.
For experiment [4], the target named is Kar9^N (N-terminal folded domain of Kar9) (Saccharomyces cerevisiae (strain S288c)) (UniProt P32526). The description is as above.
The target in experiment [5] is T1, Smy1-MIS::Myo2-GTD fusion protein (Saccharomyces cerevisiae | …).
T1 chain: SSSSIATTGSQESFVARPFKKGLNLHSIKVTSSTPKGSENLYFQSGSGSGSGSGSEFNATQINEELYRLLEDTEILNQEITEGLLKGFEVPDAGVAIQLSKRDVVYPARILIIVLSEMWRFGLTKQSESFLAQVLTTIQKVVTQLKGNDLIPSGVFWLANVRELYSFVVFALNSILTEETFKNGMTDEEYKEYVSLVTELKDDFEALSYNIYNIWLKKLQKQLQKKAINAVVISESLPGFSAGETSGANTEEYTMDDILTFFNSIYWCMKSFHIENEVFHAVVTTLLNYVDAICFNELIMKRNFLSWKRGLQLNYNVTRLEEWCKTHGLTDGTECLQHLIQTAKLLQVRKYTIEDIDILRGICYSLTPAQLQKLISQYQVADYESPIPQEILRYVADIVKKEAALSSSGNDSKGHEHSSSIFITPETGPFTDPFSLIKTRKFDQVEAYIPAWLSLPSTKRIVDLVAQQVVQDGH
Kind of experiment: ITC.

For experiment [6], the target named is T2, Myo2-GTD (globular tail domain of Myo2) (Saccharomyces cerevisiae (strain S288c), UniProt P19524 1152-1574).
T2 chain: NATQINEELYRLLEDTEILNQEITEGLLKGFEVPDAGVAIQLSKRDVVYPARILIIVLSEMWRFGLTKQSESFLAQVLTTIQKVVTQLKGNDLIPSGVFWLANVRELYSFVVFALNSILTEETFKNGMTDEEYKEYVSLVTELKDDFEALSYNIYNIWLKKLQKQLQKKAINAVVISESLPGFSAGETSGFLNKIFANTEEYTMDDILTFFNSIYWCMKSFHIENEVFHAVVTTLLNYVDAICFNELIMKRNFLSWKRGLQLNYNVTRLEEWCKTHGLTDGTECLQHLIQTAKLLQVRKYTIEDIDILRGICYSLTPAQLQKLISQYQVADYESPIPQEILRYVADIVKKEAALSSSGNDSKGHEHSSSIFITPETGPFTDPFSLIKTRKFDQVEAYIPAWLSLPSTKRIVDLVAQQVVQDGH
The experiment is described as follows: ITC.

For experiment [7], the target named is T3, Myo2-GTD D1297N (Saccharomyces cerevisiae).
T3 chain: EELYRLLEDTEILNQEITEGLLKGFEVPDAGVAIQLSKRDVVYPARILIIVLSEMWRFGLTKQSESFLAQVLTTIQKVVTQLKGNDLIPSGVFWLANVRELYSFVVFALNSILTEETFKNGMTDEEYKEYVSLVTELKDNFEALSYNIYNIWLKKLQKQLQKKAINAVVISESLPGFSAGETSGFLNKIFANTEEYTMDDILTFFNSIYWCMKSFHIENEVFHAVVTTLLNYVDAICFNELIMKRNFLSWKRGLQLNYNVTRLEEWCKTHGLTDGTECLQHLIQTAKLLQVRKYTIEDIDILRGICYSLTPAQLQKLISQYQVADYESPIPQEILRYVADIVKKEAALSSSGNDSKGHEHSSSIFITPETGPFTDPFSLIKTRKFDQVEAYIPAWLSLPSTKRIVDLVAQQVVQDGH
The experiment is described as follows: ITC.

Experiment [8] addresses T4, Myo2-GTD Y1303A (Saccharomyces cerevisiae).
T4 chain: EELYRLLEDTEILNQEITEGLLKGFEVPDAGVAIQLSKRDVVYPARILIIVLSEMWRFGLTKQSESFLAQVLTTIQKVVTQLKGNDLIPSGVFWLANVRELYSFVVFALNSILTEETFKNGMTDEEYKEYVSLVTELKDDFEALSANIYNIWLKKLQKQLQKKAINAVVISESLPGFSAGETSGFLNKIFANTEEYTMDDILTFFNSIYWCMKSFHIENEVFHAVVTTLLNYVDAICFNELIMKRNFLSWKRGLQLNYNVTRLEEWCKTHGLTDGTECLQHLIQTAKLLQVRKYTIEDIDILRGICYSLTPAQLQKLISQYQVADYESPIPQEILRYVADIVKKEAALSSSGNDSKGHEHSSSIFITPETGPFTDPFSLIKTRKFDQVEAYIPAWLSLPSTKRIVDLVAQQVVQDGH
Kind of experiment: ITC.

Experiment [9] addresses T5, Myo2-GTD L1331S (Saccharomyces cerevisiae (strain S288c)).
T5 chain: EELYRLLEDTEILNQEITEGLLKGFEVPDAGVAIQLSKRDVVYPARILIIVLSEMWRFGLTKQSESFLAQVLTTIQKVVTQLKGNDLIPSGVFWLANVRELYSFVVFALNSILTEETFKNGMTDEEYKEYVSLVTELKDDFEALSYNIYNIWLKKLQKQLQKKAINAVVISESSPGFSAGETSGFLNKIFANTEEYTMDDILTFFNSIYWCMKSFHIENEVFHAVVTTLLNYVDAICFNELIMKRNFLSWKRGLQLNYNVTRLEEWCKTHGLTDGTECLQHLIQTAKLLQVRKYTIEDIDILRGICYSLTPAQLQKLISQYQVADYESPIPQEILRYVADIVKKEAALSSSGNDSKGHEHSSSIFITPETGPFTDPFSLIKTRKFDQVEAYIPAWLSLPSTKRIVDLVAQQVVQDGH
Kind of experiment: ITC.

The target of experiment [10] is T6, Myo2-GTD W1407A (Saccharomyces cerevisiae (strain S288c)).
T6 chain: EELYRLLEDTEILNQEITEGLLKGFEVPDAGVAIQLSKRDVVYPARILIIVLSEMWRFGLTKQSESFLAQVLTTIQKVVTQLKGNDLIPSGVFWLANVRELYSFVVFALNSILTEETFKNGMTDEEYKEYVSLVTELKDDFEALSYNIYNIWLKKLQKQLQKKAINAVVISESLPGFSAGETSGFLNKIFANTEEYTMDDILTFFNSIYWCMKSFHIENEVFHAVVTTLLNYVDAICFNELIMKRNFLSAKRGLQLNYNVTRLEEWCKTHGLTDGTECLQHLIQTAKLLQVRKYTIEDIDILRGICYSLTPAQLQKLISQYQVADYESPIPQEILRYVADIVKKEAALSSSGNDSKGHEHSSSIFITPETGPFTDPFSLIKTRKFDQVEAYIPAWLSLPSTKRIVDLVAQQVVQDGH
Kind of experiment: ITC.

The target in experiment [11] is T2, Myo2-GTD (globular tail domain of Myo2). The experiment is described as follows: ITC.

Usually stoichiometry N stands for the number of molecules, sites or subunits per partner or assembly. In the case of “GST-Pea2-CC1 (GST-tagged Pea2-CC1; dimer) (from UniProt P40091 235-327) (domain or fragment)”, the stoichiometry N in [1] is 2. The Kd is the equilibrium constant for the complex coming apart. With “Myo2-GTD (globular tail domain of Myo2) (from UniProt P19524 1152-1574) (domain or fragment)”, the fold enhancement of the binding affinity over the Pea2-CC1 monomer in experiment [2] was determined as 5 fold. Further, in experiment [2], the stoichiometry N is 0.5. For the same molecule, the dissociation constant Kd in experiment [3] amounted to 3 µM; in experiment [4] it was 16 µM.

B1: GST-Pea2-CC1 (GST-tagged Pea2-CC1; dimer) (domain or fragment)
chain: AIQEEDSSKKLEELETAFSDLQLAHNFLTKQFENDRAEYVQDIEKLTRTNRELQDKLLNNHSNLSKTEKKLHELEQENKELEKANNKLNSSRH
modifications: N-terminal GST (pGEX-4T-1) left out; GST drives the dimerization Limits taken from 6IXQ: the fusion as Smy1-MIS, TEV site, SG linker, Myo2-GTD, assumed uncleaved as a single chain; the linker is part of the fusion
As for B1, in experiment [5], the Kd stood at 12 µM.

B2: Kar9 413-530 (protein)
chain: KKKIPKPKSLGFGRPNSVIGTITQDFQERVAINEGDSNKTPENSTTVALKGKKLGKALLQKMNIKPATSPNSSNAINPFFDPESPNKGKLILSSVPPLPYDETDETTLRVSRGENEKS
In turn, B2 registered an equilibrium dissociation constant (Kd) in [6] of 6.9 µM.

B3: Kar9^N (N-terminal folded domain of Kar9) (domain or fragment)
chain: MDNDGPRSMTIGDDFQENFCERLERIHNTLHSINDCNSLNESTTSISETLLVQFYDDLENVASVIPDLVNKKRLGKDDILLFMDWLLLKKYMLYQFISDVHNIEEGFAHLLDLLEDEFSKDDQDSDKYNRFSPMFDVIEESTQIKTQLEPWLTNLKELLDTSLEFNEISKDHMDTLHKIINSNISYCLEIQEERFASPIRHTPSFTLEQLVKLLGTHTETTEPKVPKFSPAEDILSRKFLNLKKNIPPIEKSLTDILPQRIVQFGHRNITNITTLQTILQKKYELIMKDYRFMNSEFRELKVELIDKRWNILFINLNHELLYILDEIERLQSKLLTTKYTKDITIRLERQLERKSKTVSKTFNIIYRALEFSLLDAGVASKTNELAQRWLNIKPTADKILIKSSASNKIATSKKKIPKPKSLGFGRPNSVIGTITQDFQERVAINEGDSNKTPENSTTVALKGKKLGKALLQKMNIKPATSPNSSNAINPFFDPESPNKGKLILSSVPPLPYDETDETTLRVSRGENEKSPDSFITSRHENKVQITETPLMAKNKSVLDIEKDKWNHYRSLPSRIPIYKDKVVKVTVENTPIAKVFQTPPTKITTPNSQVWVPSTRRRTRLRPPTPLSQLLSPREGRLDKTPTY
For B3, the Kd in [7] and in [8] was 16 µM in each case.

B4: Kar9^N (N-terminal folded domain of Kar9) (domain or fragment)
chain: MDNDGPRSMTIGDDFQENFCERLERIHNTLHSINDCNSLNESTTSISETLLVQFYDDLENVASVIPDLVNKKRLGKDDILLFMDWLLLKKYMLYQFISDVHNIEEGFAHLLDLLEDEFSKDDQDSDKYNRFSPMFDVIEESTQIKTQLEPWLTNLKELLDTSLEFNEISKDHMDTLHKIINSNISYCLEIQEERFASPIRHTPSFTLEQLVKLLGTHTETTEPKVPKFSPAEDILSRKFLNLKKNIPPIEKSLTDILPQRIVQFGHRNITNITTLQTILQKKYELIMKDYRFMNSEFRELKVELIDKRWNILFINLNHELLYILDEIERLQSKLLTTKYTKDITIRLERQLERKSKTVSKTFNIIYRALEFSLLDAGVASKTNELAQRWLNIKPTADKILIKSSASNKIATSKKKIPKPKSLGFGRPNSVIGTITQDFQERVAINEGDSNKTPENSTTVALKGKKLGKALLQKMNIKPATSPNSSNAINPFFDPESPNKGKLILSSVPPLPYDETDETTLRVSRGENEKSPDSFITSRHENKVQITETPLMAKNKSVLDIEKDKWNHYRSLPSRIPIYKDKVVKVTVENTPIAKVFQTPPTKITTPNSQVWVPSTRRRTRLRPPTPLSQLLSPREGRLDKTPTY
modifications: Limits taken from 6IXQ: the fusion as Smy1-MIS, TEV site, SG linker, Myo2-GTD, assumed uncleaved as a single chain; the linker is part of the fusion
As for B4, binding in experiment [5] was put at a Kd of 17 µM.

B5: Kar9^C-MIS (Myo2-interacting sequence in the C-terminal region of Kar9) (domain or fragment)
chain: ALKGKKLGKALLQKMNIKPATSPNSSNAINPFFDPESPNKGKLILSSVPPLPY
Take B5: the equilibrium dissociation constant (Kd) came to 7.7 µM in experiment [6]; 7.7 µM in [7]; 8.9 µM in experiment [9]; 7.1 µM in experiment [8]; 7.5 µM in experiment [10].

B6: Smy1-MIS (Myo2-interacting sequence of Smy1) (domain or fragment)
chain: SSSSIATTGSQESFVARPFKKGLNLHSIKVTSSTPK
Turning to B6, the Kd was determined as 21 µM in [11], 14 µM in experiment [7] and 14 µM in [8].

B7: Mmr1 (peptide)
chain: GNSARIPCPKTRLARVSVLDLKKIEEQPDSSSG
modifications: Limits taken from 6IXQ: the fusion as Smy1-MIS, TEV site, SG linker, Myo2-GTD, assumed uncleaved as a single chain; the linker is part of the fusion
B7: in experiment [5], the Kd came to 6.2 µM.

B8: Mmr1 (peptide)
chain: GNSARIPCPKTRLARVSVLDLKKIEEQPDSSSG
With B8, the Kd came to 6.8 µM in [11] and 21 µM in [7].

B9: Vac17-MIS (Myo2-interacting sequence of Vac17) (domain or fragment)
chain: PNEAPNDSPQSQSTRSSLGSFQPRPLKIIERQRLCMVTPSKPPKKS
modifications: Limits taken from 6IXQ: the fusion as Smy1-MIS, TEV site, SG linker, Myo2-GTD, assumed uncleaved as a single chain; the linker is part of the fusion
As to B9, binding in experiment [5] was put at a Kd of 0.32 µM.

B10: Inp2 (peptide)
chain: NHGFHLDILKGRK
As for B10, in experiment [11], the affinity, expressed as Kd, was 32 µM. In other words, the double-digit micromolar range.

The record behind these values is PMC9330073, “Cargo Recognition Mechanisms of Yeast Myo2 Revealed by AlphaFold2-Powered Protein Complex Prediction” (Biomolecules, 2022).
